From publication doi:10.1101/2023.08.07.552315 (bioRxiv, 2023)

Tests used:
[1] = molecular target: Mis12 complex (full length; MIS12, PMF1, NSL1, DSN1) (human) (UniProt Q9H081); assay: ITC
[2] = molecular target: Mis12 complex (full length; MIS12, PMF1, NSL1, DSN1) (human) (UniProt Q9H081); assay: BLI
[3] = molecular target: Mis12C/KNL1^2026-2342 complex (human) (UniProt Q9H081); assay: BLI
[4] = molecular target: T1, DSN1 (subunit of the Mis12 complex in the KMN cryo-EM sample) (human, UniProt Q9H410 1-356); assay: cryo-EM structure
T1 sequence (looked up): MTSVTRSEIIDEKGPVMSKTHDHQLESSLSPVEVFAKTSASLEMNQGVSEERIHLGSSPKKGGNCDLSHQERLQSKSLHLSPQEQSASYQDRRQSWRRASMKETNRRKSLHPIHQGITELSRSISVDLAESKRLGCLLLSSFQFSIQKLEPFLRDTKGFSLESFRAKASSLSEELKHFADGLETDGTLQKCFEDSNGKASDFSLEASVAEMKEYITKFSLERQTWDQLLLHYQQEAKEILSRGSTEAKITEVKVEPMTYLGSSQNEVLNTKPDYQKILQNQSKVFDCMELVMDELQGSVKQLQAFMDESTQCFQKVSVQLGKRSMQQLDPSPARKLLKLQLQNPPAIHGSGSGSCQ

[5] = molecular target: T2, NSL1 (subunit of the Mis12 complex in the KMN cryo-EM sample) (human, UniProt Q96IY1 1-281); assay: cryo-EM structure
T2 sequence (looked up): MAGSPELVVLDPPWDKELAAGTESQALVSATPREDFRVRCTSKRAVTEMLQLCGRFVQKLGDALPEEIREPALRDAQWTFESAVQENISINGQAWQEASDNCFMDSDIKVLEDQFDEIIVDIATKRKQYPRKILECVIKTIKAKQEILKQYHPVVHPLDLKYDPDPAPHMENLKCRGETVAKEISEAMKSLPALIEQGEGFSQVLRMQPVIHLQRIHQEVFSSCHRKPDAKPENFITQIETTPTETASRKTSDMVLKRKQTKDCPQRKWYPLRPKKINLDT

[6] = molecular target: Mis12 complex mutant Mis12C^M4 (human) (UniProt Q9H081); assay: ITC
[7] = molecular target: Mis12 complex mutant Mis12C^M3 (human) (UniProt Q9H081); assay: ITC
[8] = molecular target: Ndc80 complex (NDC80/HEC1, NUF2, SPC24, SPC25) (human, UniProt O14777 1-642; Q9BZD4 1-464; Q8NBT2 1-197; Q9HBM1 1-224); assay: BLI
Chain of Ndc80 complex (NDC80/HEC1, NUF2, SPC24, SPC25) (O14777 whole entry, chain 1 of 2, the tested form may be a part): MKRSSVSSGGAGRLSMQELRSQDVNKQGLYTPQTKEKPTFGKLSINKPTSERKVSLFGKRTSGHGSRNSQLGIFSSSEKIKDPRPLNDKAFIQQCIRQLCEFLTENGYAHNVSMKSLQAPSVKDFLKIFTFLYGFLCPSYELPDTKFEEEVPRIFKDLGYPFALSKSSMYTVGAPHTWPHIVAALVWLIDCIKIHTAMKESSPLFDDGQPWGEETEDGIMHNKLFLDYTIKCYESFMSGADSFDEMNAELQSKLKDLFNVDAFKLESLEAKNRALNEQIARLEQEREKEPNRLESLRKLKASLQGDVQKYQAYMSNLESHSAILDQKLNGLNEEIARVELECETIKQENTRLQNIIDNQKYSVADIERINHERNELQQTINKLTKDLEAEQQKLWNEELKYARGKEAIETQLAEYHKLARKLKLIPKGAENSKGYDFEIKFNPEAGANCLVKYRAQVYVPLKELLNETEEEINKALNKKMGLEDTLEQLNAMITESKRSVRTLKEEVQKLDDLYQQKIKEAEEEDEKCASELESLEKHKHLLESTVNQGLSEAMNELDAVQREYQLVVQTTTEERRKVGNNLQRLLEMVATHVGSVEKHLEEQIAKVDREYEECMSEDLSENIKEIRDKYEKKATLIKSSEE
Chain of Ndc80 complex (NDC80/HEC1, NUF2, SPC24, SPC25) (Q9BZD4 whole entry, chain 2 of 2, the tested form may be a part): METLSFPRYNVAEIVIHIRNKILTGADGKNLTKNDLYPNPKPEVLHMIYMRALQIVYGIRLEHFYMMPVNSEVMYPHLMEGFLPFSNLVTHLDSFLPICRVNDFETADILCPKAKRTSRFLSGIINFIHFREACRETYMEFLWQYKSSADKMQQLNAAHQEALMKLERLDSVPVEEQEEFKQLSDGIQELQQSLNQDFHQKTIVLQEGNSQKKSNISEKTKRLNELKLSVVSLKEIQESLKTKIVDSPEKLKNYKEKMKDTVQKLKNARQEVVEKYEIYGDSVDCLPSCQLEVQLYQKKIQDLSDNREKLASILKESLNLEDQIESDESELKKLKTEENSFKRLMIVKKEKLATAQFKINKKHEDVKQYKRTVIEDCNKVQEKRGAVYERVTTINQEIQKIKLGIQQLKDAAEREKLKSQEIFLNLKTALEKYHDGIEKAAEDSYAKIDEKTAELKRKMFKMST

SPC25 residues 92-224 = molecular target: T3, SPC25 residues 92-224 (human, UniProt Q9HBM1 92-224); assay: cryo-EM structure
T3 sequence (looked up): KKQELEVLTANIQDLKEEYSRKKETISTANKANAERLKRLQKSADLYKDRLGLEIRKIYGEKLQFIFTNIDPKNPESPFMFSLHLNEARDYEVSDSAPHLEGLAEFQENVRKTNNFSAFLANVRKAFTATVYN

KNL1 residues 2026-2342 (domain or fragment)
Kd [1]: 1.6 nM | Kd [2]: 2 nM

Ndc80 complex (NDC80/HEC1, NUF2, SPC24, SPC25) (from UniProt O14777 1-642; Q9BZD4 1-464; Q8NBT2 1-197; Q9HBM1 1-224)
Kd [3]: 1 nM | koff [3]: 0.0001 s⁻¹

B1: SPC24^109-197/SPC25^92-224 dimer (complex, human)
chain 1: EELKEIEADLERQEKEVDEDTTVTIPSAVYVAQLYHQVSKIEWDYECEPGMVKGIHHGPSVAQPIHLDSTQLSRKFISDYLWSLVDTEW
chain 2: KKQELEVLTANIQDLKEEYSRKKETISTANKANAERLKRLQKSADLYKDRLGLEIRKIYGEKLQFIFTNIDPKNPESPFMFSLHLNEARDYEVSDSAPHLEGLAEFQENVRKTNNFSAFLANVRKAFTATVYN
binding result [4]: binds | binding result [5]: binds | fold reduction of the binding affinity against wild-type Mis12C [6]: 10 fold | fold reduction of the binding affinity against wild-type Mis12C [7]: 20 fold

B2: Mis12 complex (full length; MIS12, PMF1, NSL1, DSN1) (complex, human)
chain 1: MSVDPMTYEAQFFGFTPQTCMLRIYIAFQDYLFEVMQAVEQVILKKLDGIPDCDISPVQIRKCTEKFLCFMKGHFDNLFSKMEQLFLQLILRIPSNILLPEDKCKETPYSEEDFQHLQKEIEQLQEKYKTELCTKQALLAELEEQKIVQAKLKQTLTFFDELHNVGRDHGTSDFRESLVSLVQNSRKLQNIRDNVEKESKRLKIS
chain 2: MAEASSANLGSGCEEKRHEGSSSESVPPGTTISRVKLLDTMVDTFLQKLVAAGSYQRFTDCYKCFYQLQPAMTQQIYDKFIAQLQTSIREEISDIKEEGNLEAVLNALDKIVEEGKVRKEPAWRPSGIPEKDLHSVMAPYFLQQRDTLRRHVQKQEAENQQLADAVLAGRRQVEELQLQVQAQQQAWQALHREQRELVAVLREPE
chain 3: MAGSPELVVLDPPWDKELAAGTESQALVSATPREDFRVRCTSKRAVTEMLQLCGRFVQKLGDALPEEIREPALRDAQWTFESAVQENISINGQAWQEASDNCFMDSDIKVLEDQFDEIIVDIATKRKQYPRKILECVIKTIKAKQEILKQYHPVVHPLDLKYDPDPAPHMENLKCRGETVAKEISEAMKSLPALIEQGEGFSQVLRMQPVIHLQRIHQEVFSSCHRKPDAKPENFITQIETTPTETASRKTSDMVLKRKQTKDCPQRKWYPLRPKKINLDT
chain 4: MTSVTRSEIIDEKGPVMSKTHDHQLESSLSPVEVFAKTSASLEMNQGVSEERIHLGSSPKKGGNCDLSHQERLQSKSLHLSPQEQSASYQDRRQSWRRASMKETNRRKSLHPIHQGITELSRSISVDLAESKRLGCLLLSSFQFSIQKLEPFLRDTKGFSLESFRAKASSLSEELKHFADGLETDGTLQKCFEDSNGKASDFSLEASVAEMKEYITKFSLERQTWDQLLLHYQQEAKEILSRGSTEAKITEVKVEPMTYLGSSQNEVLNTKPDYQKILQNQSKVFDCMELVMDELQGSVKQLQAFMDESTQCFQKVSVQLGKRSMQQLDPSPARKLLKLQLQNPPAIHGSGSGSCQ
Kd [8]: ~6 nM | koff [8]: ~0.0001 s⁻¹

B3: SPC24 residues 109-197 (domain or fragment, human, UniProt Q8NBT2 109-197, looked up)
chain: EELKEIEADLERQEKEVDEDTTVTIPSAVYVAQLYHQVSKIEWDYECEPGMVKGIHHGPSVAQPIHLDSTQLSRKFISDYLWSLVDTEW
binding result (SPC25 residues 92-224): binds
